Assay results: patent US20210395361A1 (Alector, published 2021)

What was measured:
[1] = target: T1, Histidine-tagged human Siglec-5 (NovoProtein) (human, UniProt O15389 17-434, limits assumed); experiment: array SPR, antibody immobilized, His-tagged human Siglec-5 (0-500 nM) in solution; apparent affinity
T1 construct: Bought soluble protein; also called His-tagged human Siglec-5; not shown: histidine tag
T1 sequence: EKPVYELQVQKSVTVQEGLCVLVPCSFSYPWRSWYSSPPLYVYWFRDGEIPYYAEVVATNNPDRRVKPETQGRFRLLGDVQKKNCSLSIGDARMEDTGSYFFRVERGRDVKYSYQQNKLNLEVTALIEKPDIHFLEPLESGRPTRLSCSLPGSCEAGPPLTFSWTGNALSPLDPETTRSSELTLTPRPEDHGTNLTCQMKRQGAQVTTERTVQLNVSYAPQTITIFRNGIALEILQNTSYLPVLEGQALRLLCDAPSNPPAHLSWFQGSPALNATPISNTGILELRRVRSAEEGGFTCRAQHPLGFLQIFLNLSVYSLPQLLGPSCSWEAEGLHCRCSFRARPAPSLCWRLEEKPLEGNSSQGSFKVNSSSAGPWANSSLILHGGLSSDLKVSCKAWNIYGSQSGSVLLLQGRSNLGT
Description: The apparent binding affinities of the anti-Siglec-5 antibodies were measured by array surface plasmon resonance (SPR), according to standard techniques (Abdiche, et al. (2016) MAbs 8:264-277). Briefly, anti-Siglec-5 antibodies were immobilized on a HC 30M chip at four different densities, at antibody concentration of 10 μg/mL, 2.5 μg/mL, 0.63 μg/mL, and 0.16 μg/mL. Varying concentrations (0-500 nM) of Histidine-tagged human Siglec-5 or cynomolgus Siglec-5 (NovoProtein) were then bound to the captured anti-Siglec-5 surface (5 min injection time, 15 min dissociation time) in HBS-EP⁺/1 mg/mL BSA running buffer. Kinetic analysis was performed using Carterra software to extract association and dissociation rate constants (kₐ and kd, respectively) for each antibody. Apparent affinity constants (KD) were calculated from the ratio kd/kₐ. None of the anti-Siglec-5 antibodies bound to cynomolgus Siglec-5 protein.

human Siglec-14 = target: T2, human Siglec-14 (human, UniProt Q08ET2 17-396); experiment: FACS titration, CHO-S hSiglec-14 cells, anti-human IgG secondary; y-axis Fold over isotype, x-axis Antibody (nM), log scale; the same flat line on CHO-S Parental cells
T2 construct: also called CHO-S14; CHO-S hSiglec-14
T2 sequence: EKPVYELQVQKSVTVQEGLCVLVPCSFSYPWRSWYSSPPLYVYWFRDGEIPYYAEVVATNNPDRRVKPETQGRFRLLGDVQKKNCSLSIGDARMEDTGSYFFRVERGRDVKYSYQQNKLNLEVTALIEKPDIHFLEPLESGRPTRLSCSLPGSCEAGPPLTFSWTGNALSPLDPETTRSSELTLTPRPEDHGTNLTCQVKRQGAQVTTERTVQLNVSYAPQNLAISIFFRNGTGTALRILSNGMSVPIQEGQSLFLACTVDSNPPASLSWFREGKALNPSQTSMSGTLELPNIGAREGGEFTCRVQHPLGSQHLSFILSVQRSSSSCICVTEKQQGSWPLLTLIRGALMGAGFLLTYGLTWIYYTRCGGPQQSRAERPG
Description: (§1) CHO cells were incubated with increasing concentrations of anti-Siglec-5 antibody, as indicated on the x-axis of each plot. The binding of anti-Siglec-5 antibodies to the surface of CHO cells was then measured by FACS. The y-axis provides the binding of each indicated anti-Siglec-5 antibody to the surface of CHO cells relative to hIgG1 isotype control antibodies. S5-174-H2L1 refers to antibody S5-174-H3; S5-174-H3L1 refers to antibody S5-174-H5; S5-174-H3L2 refers to antibody S5-174-H6; S5-174-H4L1 refers to antibody S5-174-H7; S5-174-H4L2 refers to antibody S5-174-H8; S5-G03-H2L1 refers to antibody S5-G-03-H4; S5-G03-H2L2 refers to antibody S5-G-03-H5; S5-G03-H3L1 refers to antibody S5-G-03-H7; S5-G03-H3L2 refers to antibody S5-G-03-H8; and S5-G03-H3L3 refers to antibody S5-G-03-H9.
(§2) Various anti-Siglec-5 antibodies of the present disclosure were evaluated for their ability to bind to CHO cells which were stably transfected with human Siglec-5 (CHO-S5) or human Siglec-14 (CHO-S14). Cells were incubated with various dilutions of anti-Siglec-5 antibodies for 30 minutes on ice in the dark, followed by a 30-minute incubation with a fluorescently conjugated anti-human IgG secondary antibody. Cells were then washed twice in FACS buffer (PBS+2% FBS, 2 mM EDTA), and flow cytometry was performed on a BD FACS Canto. Data were analyzed using FlowJo software (Ashland, Oreg.). In FIG. 9, hIgG1 refers to isotype control antibodies; S5-174-H2L1 refers to antibody S5-174-H3; S5-174-H3L1 refers to antibody S5-174-H5; S5-174-H3L2 refers to antibody S5-174-H6; S5-174-H4L1 refers to antibody S5-174-H7; S5-174-H4L2 refers to antibody S5-174-H8; S5-G03-H2L1 refers to antibody S5-G-03-H4; S5-G03-H2L2 refers to antibody S5-G-03-H5; S5-G03-H3L1 refers to antibody S5-G-03-H7; S5-G03-H3L2 refers to antibody S5-G-03-H8; and S5-G03-H3L3 refers to antibody S5-G-03-H9.

human Siglec-5 = target: T3, human Siglec-5 (human, UniProt O15389 17-551); experiment: FACS titration, CHO-S hSiglec-5 cells, anti-human IgG secondary; y-axis Fold over isotype, x-axis Antibody (nM), log scale
T3 construct: also called CHO-S5; CHO-S hSiglec-5
T3 sequence: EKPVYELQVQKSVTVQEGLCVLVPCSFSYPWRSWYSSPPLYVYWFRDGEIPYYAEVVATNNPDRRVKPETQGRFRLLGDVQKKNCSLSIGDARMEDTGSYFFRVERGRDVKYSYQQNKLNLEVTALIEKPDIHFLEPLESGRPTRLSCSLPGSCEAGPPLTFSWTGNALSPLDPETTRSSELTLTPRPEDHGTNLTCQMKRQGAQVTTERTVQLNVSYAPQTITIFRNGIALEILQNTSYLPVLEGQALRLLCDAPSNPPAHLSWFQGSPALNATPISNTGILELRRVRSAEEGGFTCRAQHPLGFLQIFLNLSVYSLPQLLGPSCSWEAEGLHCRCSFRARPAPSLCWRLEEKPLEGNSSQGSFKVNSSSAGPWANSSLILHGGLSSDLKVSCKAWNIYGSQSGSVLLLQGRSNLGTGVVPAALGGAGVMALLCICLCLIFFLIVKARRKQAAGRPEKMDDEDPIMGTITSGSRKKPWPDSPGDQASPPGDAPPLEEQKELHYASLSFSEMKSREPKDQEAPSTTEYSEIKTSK
Description: as §1, §2

Row | Binder | Kd [1] | koff [1] | kon [1] | binding result (human Siglec-14) | binding result (human Siglec-5)
1 | S5-G-03 (antibody, V domains shown, Mouse-derived variable domains; expressed in mammalian cells as full antibody; hIgG1 isotype control; also called SG-5-03) VH: QAYLQQSGGGLVQPGQSLKLSCAASGFTFSTYGMSWVRQTPDKRLELVATINSNGDNTYYPDSVKGRFTISRDNANNTLYLQMSSLKSEDTAMYFCARAWPSITTVFAPYTLDYWGQGTSVTVSS VL: DIVLTQSPAIMSASPGEKVTMTCRASSSVSSSFLHWYQQKSGASPKLWIYSTSNLASGVPTRFSGSGSGTSYSLSISSVEAEDTATYFCQQYSGYPLTFGGGTKLEIK | 7.1 nM | 0.0001 s⁻¹ | 14000 M⁻¹ s⁻¹ | no binding (tested: last point between 1 and 10 nM) | 
2 | S5-174-H5 (antibody, V domains shown, Humanized variant of S5-174; also called S5-174-H3L1) VH: QVQLVQSGAEVKKPGSSVKLSCKASGYTFTNYWMHWVRQAPGQGLEWVGEIDPSDGYVTYAQKFQGRATLTVDKSTSTAYMELSSLRSEDTAVYYCAGVYYGNSIYYAMDYWGQGTLVTVSS VL: DIQMTQSPSSLSASVGDRVTITCRASQDVGTAVAWYQQKPGKAPKLLIYWTSTRHTGVPSRFSGSGSGTDFTLTISSLQPEDFATYYCQQYRSYPFTFGQGTKLEIK |  |  |  | no binding (tested: last point between 1 and 10 nM) | binds
3 | S5-174-H7 (antibody, V domains shown, Humanized variant of S5-174; also called S5-174-H4L1) VH: QVQLVQSGAEVKKPGSSVKLSCKASGYTFTNYWMHWVRQAPGQGLEWVGEIDPSDGYVTYAQKFQGRATLTVDRSTSTAYMELSSLRSEDTAVYYCAGVYYGNSIYYAMDYWGQGTLVTVSS VL: DIQMTQSPSSLSASVGDRVTITCRASQDVGTAVAWYQQKPGKAPKLLIYWTSTRHTGVPSRFSGSGSGTDFTLTISSLQPEDFATYYCQQYRSYPFTFGQGTKLEIK |  |  |  | no binding (tested: last point between 1 and 10 nM) | binds
4 | S5-174-H8 (antibody, V domains shown, Humanized variant of S5-174; also called S5-174-H4L2) VH: QVQLVQSGAEVKKPGSSVKLSCKASGYTFTNYWMHWVRQAPGQGLEWVGEIDPSDGYVTYAQKFQGRATLTVDRSTSTAYMELSSLRSEDTAVYYCAGVYYGNSIYYAMDYWGQGTLVTVSS VL: DIQMTQSPSSLSTSVGDRVTITCRASQDVGTAVAWYQQKPGKAPKLLIYWTSTRHTGVPSRFSGSGSGTDFTLTISSVQPEDLATYYCQQYRSYPFTFGQGTKLEIK |  |  |  | no binding (tested: last point between 1 and 10 nM) | binds
5 | S5-174-H3 (antibody, V domains shown, Humanized variant of S5-174; also called S5-174-H2L1) VH: QVQLVQSGAEVKKPGSSVKVSCKASGYTFTNYWMHWVRQAPGQGLEWMGEIDPSDGYVTYAQKFQGRVTITVDKSTSTAYMELSSLRSEDTAVYYCAGVYYGNSIYYAMDYWGQGTLVTVSS VL: DIQMTQSPSSLSASVGDRVTITCRASQDVGTAVAWYQQKPGKAPKLLIYWTSTRHTGVPSRFSGSGSGTDFTLTISSLQPEDFATYYCQQYRSYPFTFGQGTKLEIK |  |  |  | no binding (tested: last point between 1 and 10 nM) | binds
6 | S5-174-H6 (antibody, V domains shown, Humanized variant of S5-174; also called S5-174-H3L2) VH: QVQLVQSGAEVKKPGSSVKLSCKASGYTFTNYWMHWVRQAPGQGLEWVGEIDPSDGYVTYAQKFQGRATLTVDKSTSTAYMELSSLRSEDTAVYYCAGVYYGNSIYYAMDYWGQGTLVTVSS VL: DIQMTQSPSSLSTSVGDRVTITCRASQDVGTAVAWYQQKPGKAPKLLIYWTSTRHTGVPSRFSGSGSGTDFTLTISSVQPEDLATYYCQQYRSYPFTFGQGTKLEIK |  |  |  | no binding (tested: last point between 1 and 10 nM) | binds
7 | S5-G-03-H8 (antibody, V domains shown, Humanized variant of S5-G-03; also called S5-G03-H3L2; SG-5-03-H8) VH: EVQLLQSGGGLVQPGGSLRLSCAASGFTFSTYGMSWVRQAPGKGLELVATINSNGDNTYYADSVKGRFTISRDNSKNTLYLQMNSLRAEDTAVYYCARAWPSITTVFAPYTLDYWGQGTLVTVSS VL: DIQMTQSPSSLSASVGDRVTITCRASSSVSSSFLHWYQQKPGKAPKLWIYSTSNLASGVPSRFSGSGSGTDYTLTISSLQPEDFATYYCQQYSGYPLTFGQGTKLEIK |  |  |  | no binding (tested: last point between 1 and 10 nM) | binds
8 | S5-G-03-H7 (antibody, V domains shown, Humanized variant of S5-G-03; also called S5-G03-H3L1) VH: EVQLLQSGGGLVQPGGSLRLSCAASGFTFSTYGMSWVRQAPGKGLELVATINSNGDNTYYADSVKGRFTISRDNSKNTLYLQMNSLRAEDTAVYYCARAWPSITTVFAPYTLDYWGQGTLVTVSS VL: DIQMTQSPSSLSASVGDRVTITCRASSSVSSSFLHWYQQKPGKAPKLLIYSTSNLASGVPSRFSGSGSGTDFTLTISSLQPEDFATYYCQQYSGYPLTFGQGTKLEIK |  |  |  | no binding (tested: last point between 1 and 10 nM) | binds
9 | S5-G-03-H5 (antibody, V domains shown, Humanized variant of S5-G-03; also called S5-G03-H2L2; SG-5-03-H5) VH: EVQLLESGGGLVQPGGSLRLSCAASGFTFSTYGMSWVRQAPGKGLELVATINSNGDNTYYADSVKGRFTISRDNSKNTLYLQMNSLRAEDTAVYYCARAWPSITTVFAPYTLDYWGQGTLVTVSS VL: DIQMTQSPSSLSASVGDRVTITCRASSSVSSSFLHWYQQKPGKAPKLWIYSTSNLASGVPSRFSGSGSGTDYTLTISSLQPEDFATYYCQQYSGYPLTFGQGTKLEIK |  |  |  | no binding (tested: last point between 1 and 10 nM) | binds
10 | S5-G-03-H4 (antibody, V domains shown, Humanized variant of S5-G-03; also called S5-G03-H2L1) VH: EVQLLESGGGLVQPGGSLRLSCAASGFTFSTYGMSWVRQAPGKGLELVATINSNGDNTYYADSVKGRFTISRDNSKNTLYLQMNSLRAEDTAVYYCARAWPSITTVFAPYTLDYWGQGTLVTVSS VL: DIQMTQSPSSLSASVGDRVTITCRASSSVSSSFLHWYQQKPGKAPKLLIYSTSNLASGVPSRFSGSGSGTDFTLTISSLQPEDFATYYCQQYSGYPLTFGQGTKLEIK |  |  |  | no binding (tested: last point between 1 and 10 nM) | binds
